Test results published in the supplement of paper PMC10567573.

B1: SLC35F2 (parent)
chain: SFMPLVIKVTSATSVNLGILTADL

Variants of: B1
Assay: protein stability index of a GFP-peptide fusion (GPS, HEK-293T) (PSI 1-6); higher = more stable
Conditions: c terminus: a fixed tail appended
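Also: lentivirally expressed fusions sorted by FACS into six bins by GFP to DsRed ratio, PSI derived from sequencing read proportions per bin multiplied by bin number.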

Protein stability index, by site and new letter:
G18: M 2.55 | L 3.54 | S 3.19 | Q 4.06 | T 3.29 | H 3.1 | W 3.32 | A 2.54 | E 2.91 | N 3.27 | R 3.18 | D 3.2 | I 3.72 | Y 3.08 | C 3.82 | V 2.17 | K 2.9 | F 3.03 | P 2.47
V15: K 3.59 | N 2.58 | M 3.77 | T 3.48 | P 2.73 | A 3.38 | D 3.98 | S 3.78 | H 2.88 | I 1.93 | W 4.14 | L 3.01 | F 3.58 | R 3.44 | Y 2.21 | C 2.21 | G 2.91
S11: E 2.8 | T 2.03 | L 1.96 | F 4.62 | A 4.19 | K 2.9 | N 4.93 | I 4.08 | D 2.91 | M 3.94 | C 2.19 | Q 2.23 | V 2.64
A12: Y 1.73 | C 4.33 | F 2.25 | L 3.32 | E 3.09 | N 2.58 | T 2.89 | G 3.33 | R 2.75 | H 2.37 | I 2.85 | W 1.91 | K 4.17 | D 2.82 | S 1.89 | P 1.22 | V 2.75 | Q 2.82 | M 2.9
V6: A 2.02 | G 3.03 | K 2.88 | M 1.36 | Y 3.21 | P 2.06 | C 3.92 | N 2.29 | I 2.65 | H 2.74 | Q 1.86 | D 2.09 | W 4.41 | R 2.43 | F 2.02 | E 1.24 | L 2.32 | S 2 | T 2.76
M3: G 3.41 | D 2.11 | T 2.79 | I 2.15 | P 3.32 | Q 2.13 | N 3.15 | K 2.4 | W 4.7 | C 1.59 | V 2.06 | L 2.73 | S 3.76 | Y 1.96 | R 1.58
T13: Q 2.25 | A 3.02 | L 2.94 | D 3.02 | S 2.59 | I 3.67 | R 3.63 | V 2.43 | N 2.55 | E 2.6 | H 4 | W 2.75 | K 2.16 | F 2.53 | P 3.09 | C 3.16 | G 2.38 | M 2.34 | Y 3.88
T21: N 1.87 | V 2.54 | H 4.75 | W 2.7 | D 2.61 | L 2.33 | K 2.52 | A 2.49 | G 2.24 | M 2.77 | E 2.86 | R 3.24 | Y 3.83 | I 3.26 | Q 2.79 | P 2.5 | S 3.64 | F 1.85
F2: P 2.47 | T 2.87 | S 2.92 | L 2.42 | M 2.47 | Q 3.56 | R 2.01 | N 2.48 | V 2.68
P4: C 3.66 | A 2.68 | T 2.71 | F 1.91 | S 1.73 | G 2.32 | Q 4.03 | V 3.1 | M 3.13 | W 3.07 | D 1.64 | E 3.23 | R 5.37 | L 2.34 | H 3.09
L5: W 2.75 | V 2.41 | I 2.1 | N 2.24 | H 2.28 | D 1.88 | Y 3.46 | P 2.55 | M 2.94 | S 1.47 | C 3.74 | R 1.65 | K 1.88 | A 3.18 | T 3.25 | E 1.51 | Q 2.19 | G 1.68
V9: Q 3.26 | L 4.15 | E 1.58 | S 1.56 | G 2.17 | F 3.51 | A 2.07 | I 3.17 | Y 3.58 | K 1.48 | N 2.39 | R 1.81 | T 1.46 | P 1.7 | D 1.78 | H 1.52 | C 3.06 | W 2.28
K8: Q 2.87 | R 3.26 | M 2.42 | A 2.83 | S 3.16 | V 3.52 | P 2.19 | N 3.01 | E 3.06 | D 2.75 | I 3.97 | C 3.64 | H 2.59 | T 3 | Y 3.43 | W 2.13 | G 2.94
T10: Q 3.38 | E 2.98 | R 2.69 | F 3.67 | C 2.93 | P 1.31 | H 3.25 | D 3.46 | M 2.46 | I 4.8 | N 2.43 | K 2.12 | V 3.4 | Y 2.64 | W 3.57 | S 2.65 | G 3.08
L17: H 2.92 | M 3.87 | C 3.14 | P 2.74 | G 2.9 | K 3.17 | V 2.44 | Y 2.6 | N 2.99 | E 2.24 | I 2.77 | A 2.48 | Q 3.52 | D 2.04 | S 2.85 | T 2.56 | W 3.32 | R 2.5 | F 2.72
I19: T 2 | R 2.08 | S 2.69 | H 2.39 | L 2.54 | E 2.08 | F 3.09 | A 3 | D 1.97 | C 2.99 | Q 2.64 | Y 2.38 | G 3.15 | P 2.37 | N 2.86 | V 2.77 | K 2.68 | M 3.44
N16: L 3.94 | E 2.55 | I 4.17 | F 3.69 | C 3.4 | K 3.43 | R 3.2 | W 2.82 | H 2.74 | G 2.93 | Y 3.46 | D 2.94 | T 3.43 | V 4.07 | M 3.88 | A 2.18 | Q 3.34
L20: A 3.33 | S 2.8 | F 3.49 | Q 3.08 | G 2.2 | T 2.55 | E 2.87 | W 3.1 | K 1.93 | I 3.65 | V 3.65 | C 2.67 | N 1.97 | Y 3.69 | P 2.38 | M 2.92 | H 3.07 | D 1.59
S14: F 2.94 | P 2.44 | A 2.47 | N 3.45 | H 1.79 | R 2.42 | C 3.32 | Q 1.71 | W 2.61 | L 2.15 | M 2.72
I7: C 2.11 | T 2.19 | S 1.89 | G 2.17 | K 1.76 | M 2.87 | V 3.05 | N 2.21 | W 3.77 | Q 2.26 | D 1.98 | H 1.57 | F 3.03 | E 1.49 | P 1.88 | L 3.42 | A 2.13 | R 2.16
